Source: paper PMC7021683, “RNA sequence and length contribute to RNA-induced conformational change of TLS/FUS”

Key:
[1] = molecular target: T1, MBP-BFP-TLS-GFP-6xHis (TLS/FUS) (UniProt P35637 1-526); experiment: fluorescence anisotropy; 100 nM RNA; Anisotropy: 5 mM Tris-HCl pH 7.6, 25 mM NaCl, 0.1% CHAPS, 2.5 mM glucose, 0.5 mM DTT, 25 C, 100 nM TAMRA-RNA; FRET buffer not in material; details: protein: recombinant; tags: N-term MBP, TagBFP; C-term TagGFP2, 6xHis; label: TAMRA
[2] = molecular target: T1, MBP-BFP-TLS-GFP-6xHis (TLS/FUS); experiment: FRET; Anisotropy: 5 mM Tris-HCl pH 7.6, 25 mM NaCl, 0.1% CHAPS, 2.5 mM glucose, 0.5 mM DTT, 25 C, 100 nM TAMRA-RNA; FRET buffer not in material; details: protein: recombinant; tags: N-term MBP, TagBFP; C-term TagGFP2, 6xHis
[3] = molecular target: T1, MBP-BFP-TLS-GFP-6xHis (TLS/FUS); experiment: as above; details: protein: recombinant; tags: N-term MBP, TagBFP; C-term TagGFP2, 6xHis; remark: listed apart in the source
[4] = molecular target: T1, MBP-BFP-TLS-GFP-6xHis (TLS/FUS); experiment: as above; details: protein: recombinant, tags: N-term MBP, TagBFP, C-term TagGFP2, 6xHis

T1 sequence (P35637 whole entry): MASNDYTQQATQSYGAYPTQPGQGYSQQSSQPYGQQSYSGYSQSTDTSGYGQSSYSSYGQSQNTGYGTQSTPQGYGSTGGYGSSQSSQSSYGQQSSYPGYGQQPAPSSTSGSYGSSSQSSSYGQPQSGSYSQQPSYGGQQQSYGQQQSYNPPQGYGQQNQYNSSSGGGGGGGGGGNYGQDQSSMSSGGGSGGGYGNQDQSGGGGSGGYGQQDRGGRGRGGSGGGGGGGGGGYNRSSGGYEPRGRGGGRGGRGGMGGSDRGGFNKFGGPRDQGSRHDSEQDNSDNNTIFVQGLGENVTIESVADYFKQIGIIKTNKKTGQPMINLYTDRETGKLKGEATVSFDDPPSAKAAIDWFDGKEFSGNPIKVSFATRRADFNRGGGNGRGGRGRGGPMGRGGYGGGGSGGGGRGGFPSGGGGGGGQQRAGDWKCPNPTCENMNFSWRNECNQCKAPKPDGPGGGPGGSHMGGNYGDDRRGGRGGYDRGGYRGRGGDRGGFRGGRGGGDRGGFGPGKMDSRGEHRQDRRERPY

Binder: UUUUUUUUUUUUUUUUUUUUUUUUUUUUUUU (ssRNA) [TAMRA-U31]
- binding result [1]: binds

Binder: CGGTGGTTTGATGACACTG (ssDNA) [D19]
- binding signal [2]: 0.0309 ± 0.0025 |dE| FRET

Binder: GUUAAGAGGGUA (ssRNA) [R12]
- binding result [3]: binds

Binder: GTTAAGAGGGTACGGTGGTTTGATGACACTG (ssDNA) [D31]
- binding signal [2]: 0.0594 ± 0.0039 |dE| FRET

Binder: GUUAAGAGGGUAC (ssRNA) [R13 (5'-pncRNA)]
- binding signal [4]: 0.0663 ± 0.0091 |dE| FRET

Binder: GAGGGU (ssRNA) [R6]
- binding result [3]: binds

Binder: CGGUGGUUUGAUGACACUG (structured_RNA) [R19 (3'-pncRNA)]
- binding signal ([4]; stem-loop): 0.055 ± 0.0099 |dE| FRET

Binder: GTTAAGAGGGTAC (ssDNA) [D13]
- binding signal [2]: 0.0175 ± 0.0018 |dE| FRET
